Assay [1] concerns the target basigin (human) (UniProt P35613). Kind of assay: SPR (BIAcore T200), basigin amine-coupled to a CM5 chip; analyte PfRH5ΔNLHS1 lyophilised and resuspended before measurement, two-fold dilutions from a top concentration of 8 µM, global 1:1 fit [lower right panel (lyophilised]. (In general: In SPR one partner is held on a chip, and binding of the other changes the refractive index at the surface.)

For assay [2] the target is unchanged. Description: SPR, BIAcore T200, basigin amine-coupled on CM5 chip, RH5 as analyte 8-0.0625 µM, global 1:1 fit, 20 °C.
The target is the same in assay [3]. Kind of assay: SPR (BIAcore T200), basigin amine-coupled to a CM5 chip; analyte PfRH5ΔNL lyophilised and resuspended before measurement, two-fold dilutions from a top concentration of 8 µM, global 1:1 fit [lower left panel (lyophilised].

Our source for the Kd values is patent US20190374629A1.

A word on the Kd: it is a measure of binding affinity in units of concentration. Higher therefore signals weaker binding.

For the substance “PfRH5ΔNLHS1 (from UniProt Q8IFM5 140-526) (ligand)”, the figures for the Kd in assay [1] and in assay [2] were 0.3 µM and 0.41 µM, respectively.

Turning to “PfRH5ΔNL (from UniProt Q8IFM5 140-526) (ligand)”, the Kd in assay [3] was 0.31 µM; in assay [2], 0.29 µM.
